Measured values reported in paper PMC10151503, “Specific DNA binding of archaeal histones HMfA and HMfB”.

Key:
HMfB [1] = biological target: T1, HMfB (Methanothermus fervidus, UniProt P19267 1-69); test: MST; second (nonspecific) step; Hill h 0.564 ± 0.30; error exceeds value; MST: 50 mM Tris-HCl pH 8, 75 mM KCl, 20 nM DNA (40 nM diluted 1:1), 5 min at room temperature (0.2% Tween20 where noted); TPM: 50 mM Tris-HCl pH 7, 75 mM KCl; details: protein: recombinant; chain copies: 2; label: 5' Cy5 top strand; blunt
T1 sequence (P19267 whole entry): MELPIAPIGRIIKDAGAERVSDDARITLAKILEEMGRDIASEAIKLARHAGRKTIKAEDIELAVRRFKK

HMfA [2] = biological target: T2, HMfA (Methanothermus fervidus, UniProt P48781 1-69); test: MST; Hill h 0.992 ± 0.21; MST: 50 mM Tris-HCl pH 8, 75 mM KCl, 20 nM DNA (40 nM diluted 1:1), 5 min at room temperature (0.2% Tween20 where noted); TPM: 50 mM Tris-HCl pH 7, 75 mM KCl; details: protein: recombinant; chain copies: 2; label: 5' Cy5 top strand; blunt
T2 sequence (P48781 whole entry): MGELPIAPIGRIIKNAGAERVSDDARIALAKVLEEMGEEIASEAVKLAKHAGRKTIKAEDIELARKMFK

HMfB [3] = biological target: T1, HMfB; test: MST; first (specific) step; Hill h 7.45 ± 3.5; MST: 50 mM Tris-HCl pH 8, 75 mM KCl, 20 nM DNA (40 nM diluted 1:1), 5 min at room temperature (0.2% Tween20 where noted); TPM: 50 mM Tris-HCl pH 7, 75 mM KCl; details: protein: recombinant; chain copies: 2; label: 5' Cy5 top strand; blunt
HMfA [4] = biological target: T2, HMfA; test: MST; Hill h 1.08 ± 0.19; MST: 50 mM Tris-HCl pH 8, 75 mM KCl, 20 nM DNA (40 nM diluted 1:1), 5 min at room temperature (0.2% Tween20 where noted); TPM: 50 mM Tris-HCl pH 7, 75 mM KCl; details: protein: recombinant; chain copies: 2; label: 5' Cy5 top strand; blunt
HMfB D14A K30A E34A [5] = biological target: T3, HMfB D14A K30A E34A (Methanothermus fervidus, UniProt P19267 1-69, D14A;K30A;E34A); test: MST; 0.2% Tween20; Hill h 4.09 ± 0.62; MST: 50 mM Tris-HCl pH 8, 75 mM KCl, 20 nM DNA (40 nM diluted 1:1), 5 min at room temperature (0.2% Tween20 where noted); TPM: 50 mM Tris-HCl pH 7, 75 mM KCl; details: protein: recombinant; chain copies: 4; label: 5' Cy5 top strand; blunt
T3 sequence (P19267 whole entry D14A/K30A/E34A): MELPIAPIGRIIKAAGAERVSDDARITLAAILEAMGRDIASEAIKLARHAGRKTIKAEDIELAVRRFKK

HMfB [6] = biological target: T1, HMfB; test: MST; Hill h 3.30 ± 0.97; MST: 50 mM Tris-HCl pH 8, 75 mM KCl, 20 nM DNA (40 nM diluted 1:1), 5 min at room temperature (0.2% Tween20 where noted); TPM: 50 mM Tris-HCl pH 7, 75 mM KCl; details: protein: recombinant; chain copies: 2; label: 5' Cy5 top strand; blunt
HMfB [7] = biological target: T1, HMfB; test: MST; second (nonspecific) step; Hill h 1.30 ± 0.38; MST: 50 mM Tris-HCl pH 8, 75 mM KCl, 20 nM DNA (40 nM diluted 1:1), 5 min at room temperature (0.2% Tween20 where noted); TPM: 50 mM Tris-HCl pH 7, 75 mM KCl; details: protein: recombinant; chain copies: 2; label: 5' Cy5 top strand; blunt
HMfA [8] = biological target: T2, HMfA; test: MST; Hill h 1.23 ± 0.16; MST: 50 mM Tris-HCl pH 8, 75 mM KCl, 20 nM DNA (40 nM diluted 1:1), 5 min at room temperature (0.2% Tween20 where noted); TPM: 50 mM Tris-HCl pH 7, 75 mM KCl; details: protein: recombinant; chain copies: 2; label: 5' Cy5 top strand; blunt
HMfB D14A K30A E34A [9] = biological target: T3, HMfB D14A K30A E34A; test: MST; 0.2% Tween20; Hill h 3.51 ± 0.77; MST: 50 mM Tris-HCl pH 8, 75 mM KCl, 20 nM DNA (40 nM diluted 1:1), 5 min at room temperature (0.2% Tween20 where noted); TPM: 50 mM Tris-HCl pH 7, 75 mM KCl; details: protein: recombinant; chain copies: 4; label: 5' Cy5 top strand; blunt
HMfA [10] = biological target: T2, HMfA; test: MST; Hill h 1.08 ± 0.21; MST: 50 mM Tris-HCl pH 8, 75 mM KCl, 20 nM DNA (40 nM diluted 1:1), 5 min at room temperature (0.2% Tween20 where noted); TPM: 50 mM Tris-HCl pH 7, 75 mM KCl; details: protein: recombinant; chain copies: 2; label: 5' Cy5 top strand; blunt
HMfB [11] = biological target: T1, HMfB; test: MST; second (nonspecific) step; Hill h 1.44 ± 0.47; MST: 50 mM Tris-HCl pH 8, 75 mM KCl, 20 nM DNA (40 nM diluted 1:1), 5 min at room temperature (0.2% Tween20 where noted); TPM: 50 mM Tris-HCl pH 7, 75 mM KCl; details: protein: recombinant; chain copies: 2; label: 5' Cy5 top strand; blunt
HMfB [12] = biological target: T1, HMfB; test: MST; first (specific) step; Hill h 1.24 ± 0.91; MST: 50 mM Tris-HCl pH 8, 75 mM KCl, 20 nM DNA (40 nM diluted 1:1), 5 min at room temperature (0.2% Tween20 where noted); TPM: 50 mM Tris-HCl pH 7, 75 mM KCl; details: protein: recombinant; chain copies: 2; label: 5' Cy5 top strand; blunt

B1: Clone20R 78 bp (dsDNA)
DNA 1: CGGCGCAAATTCGTGACCAGTTGCATCAGCTGCGTGCGTAGAACGCTTTAATTGATAATCAAAGGCCGCAGAGAGCTC
DNA 2: GAGCTCTCTGCGGCCTTTGATTATCAATTAAAGCGTTCTACGCACGCAGCTGATGCAACTGGTCACGAATTTGCGCCG
In the case of B1, the Kd (HMfB [1]) is reported as 12.3 ± 27 µM, the Kd (HMfA [2]) is reported as 7.34 ± 2.8 µM and the Kd (HMfB [3]) is reported as 660 ± 47 nM.

B2: Nonspecific 78 bp (dsDNA)
DNA 1: CGGCGCAAATTCGTGACCAGTTGCATCAGCTGCGTGAGCTGTTTATCGCAGCATCGTAACAGGATAGTGAAGAAGACT
DNA 2: AGTCTTCTTCACTATCCTGTTACGATGCTGCGATAAACAGCTCACGCAGCTGATGCAACTGGTCACGAATTTGCGCCG
Binder B2 has a Kd (HMfA [4]) of 16.5 ± 6.7 µM, a Kd (HMfB D14A K30A E34A [5]) of 22 ± 0.71 µM and a Kd (HMfB [6]) of 915 ± 89 nM.

B3: Clone20L 78 bp (dsDNA)
DNA 1: GGATCCCTGTCGGCACAGTTGAGCGATCAAAAACGCCGTAGATTATCGCAGCATCGTAACAGGATAGTGAAGAAGACT
DNA 2: AGTCTTCTTCACTATCCTGTTACGATGCTGCGATAATCTACGGCGTTTTTGATCGCTCAACTGTGCCGACAGGGATCC
For B3, the Kd (HMfB [7]) was 4.11 ± 1 µM and the Kd (HMfA [8]) was 8.09 ± 1.4 µM.

B4: Clone20 78 bp (dsDNA)
DNA 1: GGATCCCTGTCGGCACAGTTGAGCGATCAAAAACGCCGTAGAACGCTTTAATTGATAATCAAAGGCCGCAGAGAGCTC
DNA 2: GAGCTCTCTGCGGCCTTTGATTATCAATTAAAGCGTTCTACGGCGTTTTTGATCGCTCAACTGTGCCGACAGGGATCC
With B4 the Kd (HMfB D14A K30A E34A [9]) was 19.6 ± 1.19 µM, the Kd (HMfA [10]) was 3.75 ± 0.1 µM and the Kd (HMfB [11]) was 2990 ± 810 nM. It also gave a Kd (HMfB [12]) of 243 ± 160 nM.
